# B1: VAMP4 (parent)
# chain: FLRGPSGPRFGPRNDKIKHVQNQV
# Variants of: B1
# Test: protein stability index of a GFP-peptide fusion (GPS, HEK-293T) (PSI 1-6); higher = more stable
# Conditions: c terminus: a fixed tail appended
# 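Note: lentivirally expressed fusions sorted by FACS into six bins by GFP to DsRed ratio, PSI derived from sequencing read proportions per bin multiplied by bin number.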
row,Variant,protein stability index
1,FLRGPSGPRFGPRNDKITHVQNQV,2.47
2,FLRGPSGPRFGPRNDKIWHVQNQV,1.48
3,FLRGPSGPRFGPRNDKIIHVQNQV,2.31
4,FLRGPSGPRFGPRNDKICHVQNQV,2.04
5,FLRGPSGPRFGPRNDKIPHVQNQV,3.1
6,FLRGPSGPRFGPRNDKIDHVQNQV,2.74
7,FLRGPSGPRFGPRNDKINHVQNQV,2.83
8,FLRGPSGPRFGPRNDKIYHVQNQV,2.15
9,FLRGPSGPRFGPRNDKIEHVQNQV,3.06
10,FLRCPSGPRFGPRNDKIKHVQNQV,2.24
11,FLRSPSGPRFGPRNDKIKHVQNQV,3.06
12,FLRTPSGPRFGPRNDKIKHVQNQV,3.17
13,FLRHPSGPRFGPRNDKIKHVQNQV,2.85
14,FLRLPSGPRFGPRNDKIKHVQNQV,2.59
15,FLRIPSGPRFGPRNDKIKHVQNQV,2.05
16,FLRGPSGPRIGPRNDKIKHVQNQV,2.99
17,FLRGPSGPRPGPRNDKIKHVQNQV,3.02
18,FLRGPSGPRSGPRNDKIKHVQNQV,2.86
19,FLRGPSGPRTGPRNDKIKHVQNQV,3.36
20,FLRGPSDPRFGPRNDKIKHVQNQV,2.44
21,FLRGPSKPRFGPRNDKIKHVQNQV,2.32
22,FLRGPSIPRFGPRNDKIKHVQNQV,3.02
23,FLRGPSFPRFGPRNDKIKHVQNQV,1.85
24,FLRGPSLPRFGPRNDKIKHVQNQV,2.37

row,Variant,protein stability index
1,FLRGPSTPRFGPRNDKIKHVQNQV,2.66
2,FLRGISGPRFGPRNDKIKHVQNQV,2.17
3,FLRGQSGPRFGPRNDKIKHVQNQV,2.98
4,FLRGCSGPRFGPRNDKIKHVQNQV,2.48
5,FLRGNSGPRFGPRNDKIKHVQNQV,2.94
6,FLRGGSGPRFGPRNDKIKHVQNQV,2.43
7,FLRGTSGPRFGPRNDKIKHVQNQV,2.86
8,FLRGMSGPRFGPRNDKIKHVQNQV,2.37
9,FLRGFSGPRFGPRNDKIKHVQNQV,2.29
10,FLRGDSGPRFGPRNDKIKHVQNQV,3.36
11,FLRGWSGPRFGPRNDKIKHVQNQV,1.55
12,FLRGKSGPRFGPRNDKIKHVQNQV,2.95
13,FLRGPSGPRFGPRNDKIKHVQYQV,2.14
14,FLRGPSGPRFGPRNDKIKHVQKQV,2.88
15,FLRGPSGPRFGPRNDKIKHVQCQV,2.56
16,FLRGPSGPRFGPRNDKIKHVQLQV,2.27
17,FLRGPSGPRFGPRNDKIKHVQAQV,2.58
18,FLRGPSGPRFGPRNDKIKHVQWQV,1.42
19,FLRGPSGPRFGPRNDKIKHVQDQV,3.48
20,FLRGPSGPRFGPRNDKIKHVQIQV,1.51
21,FLRGPSGPRFGPRNDKIKHVQSQV,3.25
22,FLRGPSGPRFGPRNDKIKHVQVQV,1.74
23,FLRGPSGPRFGPRNDKIKHVQFQV,1.68
24,FLRGPSGPRFGPGNDKIKHVQNQV,2.74

row,Variant,protein stability index
1,FLRGPSGPRFGPFNDKIKHVQNQV,2.35
2,FLRGPSGPRFGPQNDKIKHVQNQV,3.6
3,FLRGPSGPRFGPDNDKIKHVQNQV,3.39
4,FLRGPSGPRFGPINDKIKHVQNQV,2.43
5,FLRGPSGPRFGPENDKIKHVQNQV,3.15
6,FLRGPSGPRFGPPNDKIKHVQNQV,3.06
7,FLRGPSGPRFGPSNDKIKHVQNQV,3.11
8,FLRGPSGPRFGPRNDKIKHVQNQR,3
9,FLRGPSGPRFGPRNDKIKHVQNQL,2.67
10,FLRGPSGPRFGPRNDKIKHVQNQW,2.82
11,FLRGPSGPRFGPRNDKIKHVQNQE,2.89
12,FLRGPSGPRFGPRNDKIKHVQNQA,2.85
13,FLRGPSGPRFGPRNDKIKHVQNQY,3
14,FLRGPSGPRFGPRNDKIKHVQNQN,3.49
15,FLRGPSGPRFWPRNDKIKHVQNQV,2.45
16,FLRGPSGPRFIPRNDKIKHVQNQV,2.12
17,FLRGPSGPRFCPRNDKIKHVQNQV,2.37
18,FLRGPSGPRFLPRNDKIKHVQNQV,2.47
19,FLRGPSGPRFHPRNDKIKHVQNQV,2.81
20,FLRGPSGPRFYPRNDKIKHVQNQV,2.16
21,FLRGPSGPRFGPRNDKIKHHQNQV,3.3
22,FLRGPSGPRFGPRNDKIKHNQNQV,2.91
23,FLRGPSGPRFGPRNDKIKHGQNQV,2.62
24,FLRGPSGPCFGPRNDKIKHVQNQV,1.76

row,Variant,protein stability index
1,FLRGPSGPGFGPRNDKIKHVQNQV,2.49
2,FLRGPSGPNFGPRNDKIKHVQNQV,3.01
3,FLRGPSGPFFGPRNDKIKHVQNQV,1.9
4,FLRGPSGPKFGPRNDKIKHVQNQV,3.87
5,FLRGPSGPSFGPRNDKIKHVQNQV,2.69
6,FLRGPSGPDFGPRNDKIKHVQNQV,2.91
7,FLRGPSGPRFGPRNDKIKQVQNQV,2.42
8,FLRGPSGPRFGPRNDKIKVVQNQV,2.95
9,FLRGPSGPRFGPRNDKIKAVQNQV,2.81
10,FLRGPSGPRFGPRNDKIKKVQNQV,2.35
11,FLRGPSGPRFGPRNDKIKGVQNQV,2.86
12,FLRGPSGPRFGPRNDKIKIVQNQV,2.55
13,FLRGPRGPRFGPRNDKIKHVQNQV,2.92
14,FLRGPFGPRFGPRNDKIKHVQNQV,2.64
15,FLRGPWGPRFGPRNDKIKHVQNQV,1.29
16,FLRGPEGPRFGPRNDKIKHVQNQV,3.94
17,FLRGPDGPRFGPRNDKIKHVQNQV,2.95
18,FLRGPAGPRFGPRNDKIKHVQNQV,2.76
19,FLRGPMGPRFGPRNDKIKHVQNQV,2.86
20,FLRGPNGPRFGPRNDKIKHVQNQV,2.43
21,FLRGPSGPRFGDRNDKIKHVQNQV,3.08
22,FLRGPSGPRFGLRNDKIKHVQNQV,2.2
23,FLRGPSGPRFGERNDKIKHVQNQV,3.63
24,FLRGPSGPRFGGRNDKIKHVQNQV,2.99

row,Variant,protein stability index
1,FLRGPSGPRFGKRNDKIKHVQNQV,2.89
2,FLRGPSGPRFGFRNDKIKHVQNQV,2.7
3,FLRGPSGPRFGMRNDKIKHVQNQV,2.61
4,FLRGPSGPRFGARNDKIKHVQNQV,2.54
5,FLRGPSGPRFGCRNDKIKHVQNQV,2.13
6,FLRGPSGPRFGHRNDKIKHVQNQV,2.75
7,FLRGPSGPRFGPRNDKKKHVQNQV,2.81
8,FLRGPSGPRFGPRNDKHKHVQNQV,3.42
9,FLRGPSGPRFGPRNDKRKHVQNQV,3
10,FLRGPSGPRFGPRNDKWKHVQNQV,1.53
11,FLRGPSGPRFGPRNDKCKHVQNQV,2.87
12,FLRGPSGPRFGPRNDKEKHVQNQV,4.11
13,FLRGPSGPRFGPRNDKVKHVQNQV,2.5
14,FLRGPSGPRFGPRNDKFKHVQNQV,2.81
15,FLRGPSGPRFGPRNDKTKHVQNQV,3.16
16,FLRGPSGPRFGPRNDKSKHVQNQV,2.34
17,FLRGPSGHRFGPRNDKIKHVQNQV,2.52
18,FLRGPSGSRFGPRNDKIKHVQNQV,2.58
19,FLRGPSGMRFGPRNDKIKHVQNQV,2.53
20,FLRGPSGVRFGPRNDKIKHVQNQV,2.54
21,FLRGPSGKRFGPRNDKIKHVQNQV,2.07
22,FLRGPSGERFGPRNDKIKHVQNQV,3.19
23,FLRGPSGWRFGPRNDKIKHVQNQV,1.79
24,FLRGPSGARFGPRNDKIKHVQNQV,2.62

row,Variant,protein stability index
1,FLRGPSGFRFGPRNDKIKHVQNQV,2.28
2,FLRGPSGPRFGPRNDKIKHVTNQV,2.29
3,FLRGPSGPRFGPRNDKIKHVMNQV,1.85
4,FLRGPSGPRFGPRNDKIKHVLNQV,1.75
5,FLRGPSGPRFGPRNDKIKHVYNQV,2.11
6,FLRGPSGPRFGPRNDKIKHVWNQV,1.41
7,FLRGPSGPRFGPRNDKIKHVSNQV,2.47
8,FHRGPSGPRFGPRNDKIKHVQNQV,1.95
9,FCRGPSGPRFGPRNDKIKHVQNQV,2.11
10,FIRGPSGPRFGPRNDKIKHVQNQV,1.97
11,FARGPSGPRFGPRNDKIKHVQNQV,2.48
12,FDRGPSGPRFGPRNDKIKHVQNQV,3.08
13,FFRGPSGPRFGPRNDKIKHVQNQV,3
14,FKRGPSGPRFGPRNDKIKHVQNQV,3.21
15,FLRGPSGPRFGPRNDDIKHVQNQV,3.13
16,FLRGPSGPRFGPRNDSIKHVQNQV,2.81
17,FLRGPSGPRFGPRNDLIKHVQNQV,2.34
18,FLRGPSGPRFGPRNDFIKHVQNQV,2.25
19,FLRGPSGPRFGPRNDYIKHVQNQV,2.28
20,FLRGPSGPRFGPRNDPIKHVQNQV,2.76
21,FLRGPSGPRFGPRNDMIKHVQNQV,2.42
22,FLRGPSGPRFGPRNDQIKHVQNQV,3.11
23,FLRGPSGPRFGPRHDKIKHVQNQV,2.73
24,FLRGPSGPRFGPRCDKIKHVQNQV,2.73

row,Variant,protein stability index
1,FLRGPSGPRFGPRLDKIKHVQNQV,2.55
2,FLRGPSGPRFGPRRDKIKHVQNQV,2.68
3,FLRGPSGPRFGPREDKIKHVQNQV,3.39
4,FLRGPSGPRFGPRTDKIKHVQNQV,2.7
5,FLRGPSGPRFGPRSDKIKHVQNQV,2.67
6,FLRGPSGPRFGPRWDKIKHVQNQV,2.25
7,FLRGPSGPRFGPRADKIKHVQNQV,2.35
8,FLRGPSGPRFGPRQDKIKHVQNQV,2.91
9,FLRGPSGPRFGPRIDKIKHVQNQV,2.2
10,FLRGPSGPRFGPRMDKIKHVQNQV,2.15
11,FLLGPSGPRFGPRNDKIKHVQNQV,2.42
12,FLFGPSGPRFGPRNDKIKHVQNQV,1.96
13,FLAGPSGPRFGPRNDKIKHVQNQV,2.54
14,FLPGPSGPRFGPRNDKIKHVQNQV,2.58
15,FLSGPSGPRFGPRNDKIKHVQNQV,3.3
16,FLDGPSGPRFGPRNDKIKHVQNQV,3.29
17,FLWGPSGPRFGPRNDKIKHVQNQV,2.02
18,FLMGPSGPRFGPRNDKIKHVQNQV,2.04
19,FLRGPSGPRFGPRNIKIKHVQNQV,3.2
20,FLRGPSGPRFGPRNMKIKHVQNQV,2.05
21,FLRGPSGPRFGPRNQKIKHVQNQV,2.5
22,FLRGPSGPRFGPRNCKIKHVQNQV,2.5
23,FLRGPSGPRFGPRNPKIKHVQNQV,3.23
24,FLRGPSGPRFGPRNTKIKHVQNQV,2.26

row,Variant,protein stability index
1,FLRGPSGPRFGPRNNKIKHVQNQV,2.7
2,FLRGPSGPRFGPRNGKIKHVQNQV,2.08
3,FLRGPSGPRFGPRNWKIKHVQNQV,1.39
4,FLRGPSGPRFGPRNSKIKHVQNQV,2.19
5,QLRGPSGPRFGPRNDKIKHVQNQV,3.68
6,YLRGPSGPRFGPRNDKIKHVQNQV,2.52
7,SLRGPSGPRFGPRNDKIKHVQNQV,3.71
8,NLRGPSGPRFGPRNDKIKHVQNQV,3.44
9,DLRGPSGPRFGPRNDKIKHVQNQV,3.75
10,ILRGPSGPRFGPRNDKIKHVQNQV,3.38
11,ALRGPSGPRFGPRNDKIKHVQNQV,3.87
12,FLRGPSGPRFGPRNDKIKHVQNIV,2.14
13,FLRGPSGPRFGPRNDKIKHVQNDV,3.04
14,FLRGPSGPRFGPRNDKIKHVQNCV,2.23
15,FLRGPSGPRFGPRNDKIKHVQNSV,2.54
16,FLRGPSGPRFGPRNDKIKHVQNEV,3.39
17,FLRGPSGPRFGPRNDKIKHVQNKV,2.22
18,FLRGPSGPRFGPRNDKIKHVQNHV,2.55
19,FLRGPSGPRFGPRNDKIKHVQNMV,2.2
20,FLRGPSGPRFGPRNDKIKHVQNPV,3.04

# From the supplement of paper PMC10567573
